The record followed here is patent US20190275196A1, “Hemostatic Powders with Self-Assembling Peptide Hydrogels” (3-D Matrix, Ltd., priority 2016, published 2019).

Common to all, as to assay type: physicochemical
A short description of data set [1]: Apparent miscibility of gelatin powder with peptide solution or saline (syringe mixing). Conditions: various mixing ratios, mixed between two luer-lock syringes, plated on glass slide. The method, then:
Gelatin powder (Surgiflo®) was separately mixed with saline and RADA16 2.5% solution (PuraMatrix®) to determine their apparent miscibility. Gelatin powders were placed in a luer-lock syringe and saline or RADA16 2.5% solution (PuraMatrix®) was placed in another luer-lock syringe. The syringes were connected to mix the contents of the two syringes by moving the plungers back and forth, for example, six times until the consistency was even. The mixtures were plated on a glass slide. FIG. 3 presents images of gelatin powder (Surgiflo®) and saline mixtures (upside images) and gelatin powder and RADA16 2.5% (PuraMatrix®) mixtures at various mixing ratios.
Gelatin powder (Surgiflo®) was mixed with IEIK13 1.3% (pH 3.0) solution to determine its apparent miscibility. Gelatin powders were placed in a luer-lock syringe and IEIK13 1.3% (pH 3.0) was placed in another luor-lock syringe. The syringes were connected to mix contents of the two syringes by moving the plungers back and forth, for example, six times until the consistency was even. The mixtures were plated on a glass slide. FIG. 9 presents images of gelatin powder (Surgiflo®) and IEIK13 mixtures at various mixing ratios.

Data set [2] is described as follows: Congo Red assay of gel formation of peptide solutions with hemostatic powders. Conditions: for gel formation when mixed with hemostatic powder compared with pure peptide solution: Congo Red assay, visual. The protocol:
A Congo Red assay was performed to determine gel formation of peptide solutions in a saline buffer solution (pH 7.4) when used with hemostatic powders.
Pure self-assembling peptide solution (PuraMatrix®), and peptide solution/hemostatic powders (Surgiflo®, Ethicon) mixtures were plated on a glass slide. After 30 seconds, 1% Congo Red solution in saline buffer solution (pH 7.4) was added around and on top of the gel aliquots and then the excess Congo Red solution was wiped off prior to examination. Visualization of gel formation determined the success or failure of gelation. […] In (1) and (2), self-assembling peptide solution (PuraMatrix®) before and after Congo red assay, respectively is shown. In (3) and (4), PuraMatrix® mixed with absorbable gelatin powder (Surgiflo®, Ethicon) at a ratio of 2 to 1 (v/w) before and after Congo red assay, respectively is shown. In (5) and (6), PuraMatrix® mixed with absorbable gelatin powder (Surgiflo®, Ethicon) at a ratio of 5 to 1 (v/w) before and after Congo red assay, respectively is shown.
Pure self-assembling peptide solution (IEIK13 1.3% at pH3.0) and peptide solution/hemostatic powders (Surgiflo®, Ethicon) mixture were plated on a glass slide. After 30 seconds, 1% Congo Red solution in saline buffer solution ([…]) was added around and on top of the gel aliquots and then the excess Congo Red solution was wiped off prior to examination. Visualization of gel formation determined the success or failure of gelation. […] In (1) and (2), self-assembling peptide solution (IEIK13 1.3% at pH 3.0) before and after Congo Red assay, respectively, is shown. In (3) and (4), IEIK13 1.3% at pH 3.0 mixed with absorbable gelatin powder, (Surgiflo®, Ethicon) at a ratio of 2 to 1 (v/w) before and after Congo Red assay, respectively, is shown. The interval of grids in FIG. 8 is 1 cm.

Data set [3] in a line: Rheology (storage/loss modulus, frequency sweep) before and after DMEM treatment. Conditions: DMEM for 20 min; 25° C.; 1-10 rad/sec. The protocol:
The rheological properties of gelatin powders with saline, self-assembling peptide, and gelatin powder with self-assembling peptide were evaluated using a rheometer (DHR-1, TA Instruments) with 20 mm plates. The samples were placed on the rheometer plate and the moduli were measured at 25° C. with the plates placed at a measuring geometry gap of 1000 μm. Measurements were performed after 2 minutes of relaxation time at 25° C. Frequency sweep tests were performed at 1 rad/sec˜10 red/sec of oscillation stress with strain at 0.01.
Pure RADA16 2.5% (PuraMatrix®), gelatin powder (Surgiflo®) mixed with saline at 2:1 w/v ratio, and gelatin powder mixed with RADA16 2.5% at various mixing ratios were all tested. These samples were treated with DMEM for 20 min after their frequency tests were performed without DMEM treatment. FIG. 4 presents the rheology of gelatin powders mixed with saline at a ratio of 2:1 w/v before and after DMEM treatment. FIG. 5 presents the rheology of RADA16 2.5% solution before and after DMEM treatment. FIG. 6 presents the rheology of gelatin powders mixed with RADA16 2.5% at a ratio of 1:5 w/v before and after DMEM treatment.

[4] abbreviates: peptide solution mixed with gelatin powder (Surgiflo®) at a ratio of 2 to 1 (v/w), 1% Congo Red in saline buffer solution (pH 7.4).

In the case of RADARADARADARADA [RADA16 2.5%], the “apparent miscibility with gelatin powder (Surgiflo®)” value in data set [1] was “capable of homogenous mixture”; in data set [1] (listed as RADA16), “homogeneously mixed across various mixing ratios”. For the same substance, in data set [2], the “gel formation when mixed with hemostatic powder compared with pure peptide solution” value was “gelled even when mixed with hemostatic powder to a similar extent as observed in pure peptide solution”. Besides, the “gel formation (gelation)” value in data set [2] (setting [4]) is reported as “capable of gelation”; in data set [2] (peptide solution mixed with gelatin powder (Surgiflo®) at a ratio of 5 to 1 (v/w), 1% Congo Red in saline buffer solution (pH 7.4)) it was “capable of gelation”. In addition, the “change of moduli (storage/loss) after DMEM treatment” value in data set [3] is “increased”.
Consider “IEIK13 1.3% (pH3.0): self-assembling peptide having the repeating sequence Ile-Glu-Ile-Lys (IEIK), 1.3% solution at pH 3.0”, for which the “apparent miscibility with gelatin powder (Surgiflo®)” value in data set [1] was “capable of homogenous mixture”; in data set [1] (listed as IEIK13) it was “homogeneously mixed across various mixing ratios”. The “gel formation when mixed with hemostatic powder compared with pure peptide solution” value in data set [2] is “gelled even when mixed with hemostatic powder to a similar extent as observed in pure peptide solution”. Also, the “gel formation (gelation)” value in data set [2] (mixed with a hemostatic powder at a ratio of 5 to 1, expected, not tested) is recorded as “capable of gelation”; in data set [2] (setting [4]), “capable of gelation”.
